Drawing on paper PMC2921665, this text covers Kd for eight molecules.

By Kd is commonly meant the constant that tells how readily two partners part at equilibrium. The low end stands for higher affinity, the high end for lower affinity.

Sequences and labels used below:
B1: RecA SOS box (dsDNA)
DNA 1: GATGCCTGCGGATACTGTATGATCATACAGTATCAATTCTGGCT
DNA 2: AGCCAGAATTGATACTGTATGATCATACAGTATCCGCAGGCATC
B2: AT-repeat spacer (dsDNA)
DNA 1: GATGCCTGCGGATACTGTATATATATACAGTATCAATTCTGGCT
DNA 2: AGCCAGAATTGATACTGTATATATATACAGTATCCGCAGGCATC
B3: A-tract spacer (dsDNA)
DNA 1: GATGCCTGCGGATACTGTAAAAAAAAACAGTATCAATTCTGGCT
DNA 2: AGCCAGAATTGATACTGTTTTTTTTTACAGTATCCGCAGGCATC
B4: AT-GC spacer (dsDNA)
DNA 1: GATGCCTGCGGATACTGTATGCGCATACAGTATCAATTCTGGCT
DNA 2: AGCCAGAATTGATACTGTATGCGCATACAGTATCCGCAGGCATC
B5: TGC spacer (dsDNA)
DNA 1: GATGCCTGCGGATACTGTACGCGCGTACAGTATCAATTCTGGCT
DNA 2: AGCCAGAATTGATACTGTACGCGCGTACAGTATCCGCAGGCATC
B6: -1 spacer (dsDNA)
DNA 1: GATGCCTGCGGATACTGTATATATTACAGTATCAATTCTGGCT
DNA 2: AGCCAGAATTGATACTGTAATATATACAGTATCCGCAGGCATC
B7: GC-repeat spacer (dsDNA)
DNA 1: GATGCCTGCGGATACTGTGCGCGCGCACAGTATCAATTCTGGCT
DNA 2: AGCCAGAATTGATACTGTGCGCGCGCACAGTATCCGCAGGCATC
B8: +1 spacer (dsDNA)
DNA 1: GATGCCTGCGGATACTGTATATATAATACAGTATCAATTCTGGCT
DNA 2: AGCCAGAATTGATACTGTATTATATATACAGTATCCGCAGGCATC

One data set concerns the target T1, LexA (EMSA protein) (Escherichia coli, UniProt P0A7C2 1-202, K156A). In words: EMSA. On the technique in general: A gel shift assay detects complexes by their altered migration in electrophoresis.
The molecule B1 yielded a Kd of 1.67 ± 0.26 nM.

Take B2: the Kd was found to be 0.8 ± 0.27 nM.

B3: the Kd came out at 5.64 ± 0.78 nM. This Kd is about 7-fold higher than that of the molecule before.

For B4, the Kd worked out at 1.59 ± 0.3 nM.

In turn, B5 came in with a Kd of 2.4 ± 0.5 nM.

Another data set deals with T1, LexA (EMSA protein). Briefly: EMSA. This is another data set of the same source.
In turn, B6 returned a Kd of around 250 nM.

Regarding B7, the Kd is around 100 nM.

B8: the Kd was around 200 nM.
